# Test results published in patent US20100261660A1 (published 2010).
# Target: T1, Soluble CTLA-4-Ig (extracellular domain of human CTLA-4 fused to the Fc portion of human IgG1) (human, UniProt P16410 36-161, FITC-conjugated in the FACS binding assays)
# T1 construct: extracellular domain; bought from R&D Systems; also called sCTLA-4-Ig; CTLA-4-Ig Fc; not shown: Fc portion of human IgG1
# Test: competitive FACS on transfected cells, FITC-sCTLA-4-Ig with biotin-sCD28-Ig; grade 0-2 of CTLA-4/CD28 ratio vs WT hB7-1
# T1 sequence (P16410 36-161): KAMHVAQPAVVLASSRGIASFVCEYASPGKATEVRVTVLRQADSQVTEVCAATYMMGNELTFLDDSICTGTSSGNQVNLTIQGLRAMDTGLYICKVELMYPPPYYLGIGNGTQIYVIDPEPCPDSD
row,Binder,Binding Score
1,Round 2 CTLA4BP 5x2-e12 (ligand) VIHVTKEVKEVATLSCGHNVSVEELAQTRIHWQKEKKMVLTMMSGGMNIWPEYKNRTIFDITNNLSIVILALRPSDEGTYECVVLKYEKDAFKREHLAEVTLSVKADFPTPSISDFEIPTSNIRRIICSTSGGFPEPHLSWLENGEELNAISTTVSQDPGTELYAVSSKLDFNMTTNRSFVCLIKYGHLRVNQTFNWNTTKQEHFPDNLLPSWAITLISVNGIFVICCLTYCFAPRCRERRRNERLRRESVRPV,0
2,Round 2 CTLA4BP 5x2-f3 (ligand) VIHVTKEVKEVATLSCGHNVSVEELAQTRIYWQKEKKMVLTMMPGDMNIWPEYKNRTIFDITNNLSIVILALRPSDEGTYECVVLRYEKDAFKREHLAEVTLSVKADFPTPSISDFEIPTSNIRRIICSTSGGFPEPHLSWLENGEELNAINTTASQDPETELYTVSSKLDFNMTTNRSFVCLIKYGHLRVNQTFNWNTPKQEHFPDNLLPSWAITLISANGIFVICCLTHCFAPRCRERKSNERLRRESVRPV,0
3,Round 2 CTLA4BP 5x2-h11 (ligand) VIHVTKKVKEVATLSCGHNVSVEELAQTRIYWQKGKKMVLTMMSGDMNIWPECKNRTIFDITNNLSIVILALRPSDEGTYECAVLKYEKDAFKREHLAEVTLSVKADFPTPSISDFEIPTSNIRRIICSTSGGFPEPHLFWLENGEELNAINTTASQDPETELYAVSSKLDFNMTTNHSFMCLIKYGHLRVNQTFNWNTPKQEHFPDNLLPSWAITLISVNGIFVICCLTYCFAPRCRERKSNERLRRESVRPV,1
4,Round 2 CTLA4BP 5x3-c3 (ligand) VIHMTKEVKEVATLSCGPNVSVEELAQTRIYWQKEKKMVLTMMSGDMNIWPEYKNRTIFDITNNLSIVILALRPSDEGTYECVVLKYEKDAFKREHLAEVTLSVKADFPTPSISDFEIPTSNIRRIICSTSGGFPEPHLSWLENGEELNAINTTVSQDPGTELYTVSSKLDFNMTTNHSFMCLIKYGHLRVNQTFNWNTPKQEHFPDNLLPSWAITLISVNGIFVICCLTHCFAPRCRERRRNERLRRESVCPV,1
5,Round 2 CTLA4BP 5x3-c4 (ligand) VIHVTKEVKEVATLSCGHNVSVEELAQTRIYWQKEKKMVLTMMSGDMNIWPEYKNRTIFDITNNLSIVILALRPSDEGTYECVVLKYEKDAFKREHLAEVTLSVKADFPTPSISDFEIPPSNIRRIICSTSGGFPEPRLAWMEDGEELNAINTTASQDPETELYTVSSKLDFNMTTNRSFVCLIKYGHLRVNQTFNWNTPKQEHFPDNLFPSWAITLISVNGIFVICCLTYCFAPRCRERRRNERLRRESVRPV,1
6,Round 2 CTLA4BP 5x3-e8 (ligand) VIHVTKEVKEVATLSCGHNVSVEELAQTRIYWQKEKKMVLTMMSGDMNIWPEYKNRTIFDITNNLSIVILALRPSDEGTYECVVLEYEKDAFKREHLAEVTLSVKADFPTPSISDFEIPTSNIRRIICSTSGGFPEPHLFWLENGEELNAINTTVSQDPETELYTVSSKLDFNMTANHSFVCLIKYGHLRVNQTFNWNTPKQEHFPDNLLPSWAITLISVNGIFVICCLTYCFAPGCRERRRNERLRRESVCPV,1
7,Round 2 CTLA4BP 5x4-a1 (ligand) VIHVTKEVKEVATLSCGHNVSVEELAQTRIYWQKEKKMVLTMMSGDMNIWPEHKNRTIFDITNNLSIVILALRPSDEGTYECVVLKYEKDAFKREHLAEVTLSVKADFPTPSITDFEIPTSNIRRIICSTSGGFPEPHLSWLENGEELNAINTTVSQDPGTELYTVSSKLDFNMTTNRSFVCLIKYGHLRVNQTFNWNTPKQEHFPDNLLPSWAITLISVNGIFVICCLTYCFAPRCRERRRNERLRRESVRPV,0
8,Round 2 CTLA4BP 5x4-h1 (ligand) VIHVTKEVKEVATLSCGHNVSVEELAQTRIHWQKEKKMVLTMMSGDMNIWPEYKNRTIFDITNNLSIVILALRPSDEGTYECVVLKYEKDAFKRKHLAEVMLSVKADFPTPSISDFEIPTSNIRRIICSTSGGFPEPHLFWLENGEELNAINTTASQDPETELYTVSSKLDFNMTTNRSFVCLIKYGHLRVNQTFNWNTPKQEHFPNNLLPSWAITLISVNGIFVICCLTYCFAPRCRERRRNETLRRESVHPV,2
9,Round 2 CTLA4BP 5x5-c10 (ligand) VIHVTKEVKEVATLSCGHNVSVEELAQTRIYWQKEKKMVLTMMSGDMNIWPEYKNRTIFDITNNLSIVILALRPSDEGTYECVVLEYEKDAFKREHLAEVTLSVKADFPTPSITDFEIPPSNIRRIICSTSGGFPEPHLFWLENGEELNAISTTVSQDPETELYAVSSKLDFNMTTNHSFMCLIKYGHLRVNQTFNWNTTKQEHFPDNLLPSWAITLISVNGIFVICCLTYCFAPRCRERRRNERLRRESVHPV,1
10,Round 2 CTLA4BP 5x5-h12 (ligand) VIHVTKKVKEVATLSCGHNVSVEELAQTRIHWQKEKKMVLTMMSGDMNIWPEYKNRTIFDITNNLSIVILALRPSDEGTYECVVLKYEKDAFKREHLAEVMLSVKADFPTPSISDFEIPPSNIRRIICSTSGGFPEPHLSWLENGEELNAINTTVSQDPGTELYTVSSKLDFNMTTDRSFVCLIKYGHLRVNQTFNWNTPKQEHFPDNLLPSWAITLISVNGIFVICCLTYCFAPRCRERRRNGRLRRESVRPV,1
11,Round 2 CTLA4BP 5x6-f6 (ligand) VIHVTKEVKEVATLSCGHNVSVEELAQTPIYWQKEKKMVLTMMSGDMNIWPEYKNRTIFDITNNLSIVILALRPSDEGTYECVVLKYEKDAFKREHLAEVMLSVKADFPTPSITDFEIPPSNIRRIICSTSGGFPEPHLFWLENGEELNAINTTVSQDPETELYTVSSKLDFNMTTNRSFVCLIKYGHLRVNQTFNWNTPKQEHFPDNLLPSWAITLISANGIFVICCLTYRFAPRCRERRRNERLRRESVCPV,1
12,Round 2 CTLA4BP 5x9-d10 (ligand) VIHVTKEVKEVATLSCGLNVSVEELAQTRIYWQKGKKMVLTMMSGDMNIWPEYKNRTIFDITNNLSIVILALRPSDEGTYECVVLEYEKDAFKREHLAEVMLSVKADFPTPSISDFEIPPSNIRRIICSTSGGFPEPHLSWLENGEELNAINTTASQDPGTELYTVSSKLDFNMTTNHSFMCLIKYGHLRVNQTFNWNTPKQEHFPDNLLPSWAITLISVNGIFVICCLTHCFAPRCRERRRNERLRRESARPV,1
13,Round 2 CTLA4BP-5X2-12F (ligand) VIHVTKEVKEVATLSCGHNVSVEELAQTRIHWQKEKKMVLTMMSGDMNIWPEYKNRTIFDITNNLSIVILALRPSDEGTYECVVLKYEKDAFKREHLAEVTLSVKADFPTPSITDFEIPPSNIKRIICSTSGGFPEPHLSWLENGEELNAINTTVSQDPETELYTVSSKLDFNMTTNHSFMCLIKYGHLRVNQTFNWNTPKQEHFPDNPLPSWAITLISANGIFVICCLTYCFAPRCRERRRNETLRRESVRPV,1
14,Round 2 CTLA4BP-5x2-2g (ligand) VIHVTKEVKEVATLSCGHNVSVEELAQTRIHWQKEKKMVLTMMSGDMNIWPEYKNRTIFDITNNLSIVILALRPSDEGTYECVVLKYEKDAFKREHLAEVMLSVKADFPTPSITDFEIPTSNIRRIICSTSGGFPEPHLSWLENGEELNAINTTVSQDPETELYTVSSKLDFNMTTNHSFMCLIKYGHLRVNQTFNWNTPKQEHFPDNLLPSWAITLISVNGIFVICCLTYRFAPRCRERKSNERLRRESVRPV,2
15,Round 2 CTLA4BP-5x2-3c (ligand) VIHVTREVKEVATLSCGHNVSVEELAQTRIHWQKEKKMVLTMMSGDMNIWPEYKNRTIFDITNNLSIVILALRPSDEGTYECVVLKYEKDAFKREHLAEVMLSVKADFPTPSISDFEIPTSNIRRIICSTSGGFPEPHLSWLENGEELNAINTTVSQDPETGLYTVSSKLDFNMTTNHSFMCLIKYGHLRVNQTFNWNTPKQEHFPDNLLPSWAITLISVNGIFVICCLTYCFAPRCRERRRNERLRRESVCPV,2
16,Round 2 CTLA4BP-5x2-4c (ligand) VIHVTKEVKEVATLSCGLNVSVEELAQTRIYWQKEKKMVLTMMSGDMNIWPEYKNRTIFDITNNLSIVILALRPSDEGTYECVVLEYEKDAFKREHLAEVMLSVKADFPTPSISDFEIPPSNIRRIICSTSGGFPEPHLSWLENGEELNGINTTVSQDPETELYTVSSKLDFNMTTNRSFVCLIKYGHLRVNQTFNWNTPKQEHFPDNLLPSWAITLISVNGIFVICCLTYCFAPRCRERRRNERLRRESVHPV,1
17,Round 2 CTLA4BP-5x2-7b (ligand) VIHVTKEVKEVATLSCGHNVSVEELAQTRIHWQKEKKMVLTMMSGDMNIWPEYKNRTIFDITNNLSIVILALRPSDEGTYECVVLKYEKDAFKREHLAEVTLSVKAGFPTPSITDFEIPPSNIRRIICSTSGGFPEPHLSWLENGEELNAINTTVSQDPGTELYTVSSKLDFNMTANHSFVCLIKYGHLRVNQTFNWNTPKQEHFPDNLLPSWAITLISANGIFVICCLTYCFAPRCRERRRNERLRRESVRPV,1
18,Round 2 CTLA4BP-5x2-8c (ligand) VIHMTKEVKEVATLSCGHNVSVEELAQTRIYWQKEKKMVLTMMSGDMNIWPEYKNRTIFDITNNLSIVILALRPSDEGTYECVVLKYEKDAFKQEHLAEVMLSVKADFPTPSITDFEIPPSNIRRIICSTSGGFPEPHLFWLENGEELNAINTTVSQDPETELYAVSSKLDFNMTTNHSFVCLIKYGHLRVNQTFNWNTPKQEHFPDNLLPSWAITLISANGIFVICCLTYCFAPRCRERRRNERLRRESVHPV,2
19,Round 2 CTLA4BP-5x3-6f (ligand) VIHVTKEVKEVATLSCGHNVSVEELAQTRIYWQKGKKMVLTMMSGDMNIWPEYKNRTIFDITNNLSIVILALRPSDEGTYECVVLEYEKDAFKREHLAEVMLSVKADFPTPSISDFEIPTSNIRRIICSTSGGFPEPHLSWLENGEELNAINTTASQDPETELYTVSSKLDFNMTTNHSFMCLIKYGHLRVNQTFNWNTPKQEHFPDNLLPSWAITLISANGIFVICCLAYCFAPGCRERKSNERLRRESVRPV,2
20,Round 2 CTLA4BP-5x3-10e (ligand) VIHVTKEVKEVATLSCGHNVSVEELAQTRIYWQKEKKMVLTMMSGDMNIWPEYKNRTIFDITNNLSIVILALRPSDEGTYECVVLEYEKDAFKREHLAEVTLSVKADFPTPSISDFEIPPSNIRRIICSTSGGFPEPHLFWLENGEELNAINTTVSQDPETELYAVSSKLDFNMTTNHSFMCLIKYGHLRVNQTFNWNTPKQEHFPDNLLPSWAITLISANGIFVICCLTYCFAPRCRERKSNERLRRESVHPV,2
